Reference: the supplement of paper PMC9170038

Test system: K4 kissing-loop RNA reporter
Experiment: apparent KD of K4 kissing-loop reporter; higher = weaker reporter binding
Conditions: Eterna round: R107
Experimental: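 RNA-MaP round R107: designed RNA switches with theophylline, tryptophan, arginine or FMN aptamers are transcribed on-chip within common flanks. They are titrated with a labelled K4 kissing-loop RNA reporter in RNA-MaP buffer (100 mM Tris pH 7.5, 80 mM KCl, 4 mM MgCl2), without ligand or with the indicated ligand. Median apparent KD per design.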

[1] = input ligand: theophylline 20 uM
[2] = input ligand: tryptophan 2.4 mM
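Further: bound reporter read as fluorescence of individual clusters on recovered sequencing chips by microscopy, with normalized cluster intensities fitted with a binding model.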

| Sequence | apparent KD of K4 kissing-loop reporter (input ligand: FMN 200 uM) [nM] | apparent KD of K4 kissing-loop reporter (input ligand: arginine 13.2 mM) [nM] | apparent KD of K4 kissing-loop reporter (input ligand: none) [nM] | apparent KD of K4 kissing-loop reporter [1] [nM] | apparent KD of K4 kissing-loop reporter [2] [nM] |
| --- | --- | --- | --- | --- | --- |
| GGUGUUGUUUGUGCUGUUUUCCUCGUUCCUCGAGGACCGGUACGGCCGCCACUCGAGUGAUGUUUGGGUAGCGAUCCUUGUUAGU [Bdazzled - #7 Exc. Tryptophan A] | 336 | 226 | 341 | 264 | 441 |
| GGUGUUGUUUGUGCUGUUUUCUUUGUUUCUCGAGGACCGGUACGGCCGCCACUCGAGUGAUGUUUGGGUAGCGAUGUUUGUUAGU [Bdazzled - #2 - Exc. Tryptophan A] | 463 | 280 | 355 | 383 | 411 |
| GGUUCUGGUUUGGAGUGAUGUUCUAAGUGGCAGGAUAUGGAGAGAUCCAGAAGGGCCGUUUGUAUCUUUUUUGUGUGGUUUUUUU [Last Minute #2] | 132 | 195 | 231 | 206 | 160 |
| GGUUUAUAGGAGGAUACCAGUACGAAUAAAGUACAUUAAUAGUAGAGUGAUGUUCUAAAGUACCCUUGGCAGCUUAGAUUAAGUU [ExTheophylB.H] | 102 | 180 | 116 | 166 | 77.9 |
| GUACCAGUGAUGUUGGUAGGCGAGCGGGAUACCAGCCAAGACUCAGGCCCUUGGCAGCCCACAUAUCCCACGUAGGUAGUAGCUC [Same State - Theophylline A (Freestyle 17)] | 96 | 103 | 105 | 110 | 92.9 |
| GUACGCUCCCGAGUGAUGUUCGGUAAUCGCUAGGAUAUCGCUUUUGCGAGAAGGAGCGGAAUGAGGAAACUCGUUCUGAGUGUAC [FMN A 26] | 300 | 254 | 350 | 386 | 338 |
| GUACGCUCUCGAGUGAUGUUCGAUAAUCGCGAGGAUAUCGCUUUUGCGAGAAGGCGCGGAAUGAGGAAACUCGUUCUGAGUGUAC [FMN A 24] | 603 | 390 | 1060 | 673 | 841 |
| GUACGCUCUCGAGUGAUGUUCGGUAAUCGCUAGGAUAUCGCUUUUGCGAGAAGGAGCGGAAUGAGGAAACUCGUUCUGAGUGUAC [FMN A 22] | 452 | 295 | 447 | 325 | 476 |
| GUAGACAGACUGCGGGCCUAGUCUACAGACUAGGAUAUCAGGAAACUGAGAAGGAGUCUAGUUGCAGUGAUGUUGCAAGAAUAAU [KL-SSFMN-A26] | 99.1 | 115 | 93.6 | 114 | 78.4 |
| GUAUCGCUAGGAGGAUAUUCCAUUUUACAUAGAAAUGGCUAUGCGGAGUGAUGUUCCGAUUUACGGGAAGAAGGCCUAGUGAUAC [FMN B 21] | 137 | 119 | 131 | 115 | 121 |
| GUAUCGCUAGGAGGAUAUUUCAAAUAACCAAUAAAUGGUUAUACGGAGUGAUGUUCCGAUUUACGGAAAGAAGGCCUAGUGAUAC [FMN B 5] | 137 | 276 | 302 | 319 | 290 |
| GUGCGGUGGAGGUUACCGCUAUUCUGAGAAGGAGCGCAGAUGACUGCAGGUAGGUCGCUUAGAGCUUGCAGUGAUGUUGCAAGUU [Berienza] | 220 | 174 | 199 | 166 | 200 |
| GUGGAAUUAUGAAAGUGGUUUUAUUAGGAAGGAGCGGCCGAAAGGCCAGGUAGGUCGCCUAUUGACAGUGAUGUUGUUAUAUGGU [#14] | 158 | 199 | 151 | 204 | 94.3 |
| GUGGCGACGCAAGGAUAUGGGUGCUAGUGAUGUUAGCCUUUGCUCCAUGUCACGUGGUCUGCACACCCAGAAGGUGCGGGAAGAU [theeternabot_exclusion_KL_FMN_B_9] | 482 | 293 | 327 | 307 | 354 |
| GUUACGCAUGGAAGGAGCGCACUCCGAUUGGUCGACACAGUGAUGUUGUGGUUCGUUCGAAUGCAGGUAGGUCGCCAUGUGUAAC [Ex Arginine B K4 18] | 165 | 143 | 175 | 145 | 150 |
| GUUACGCAUGGAAGGAGCGCAGGCUCAACAAAUAGCUCAGUGAUGUUGAGCAUAUUAAAUCUGCAGGUAGGUCGCCAUGUGUAAC [Ex Arginine B K4 24] | 498 | 500 | 504 | 559 | 581 |
| GUUAUGGACCUGGAUACCAGCUGGUACUAAGUGGGAGAAUGAAAGUGAUGUUUUCGUGCUAGCCCUUGGCAGCCAGCAACCCGCA [XTheo-B7] | 104 | 83.6 | 89.4 | 79.4 | 80.1 |
| GUUCUCGAAACUCAGUGAUGUUGAGUUGCAGAGGAUAUCCGCACAUGGAGAAGGCUGCAGUAAUUUAAAGACUCAGCGGCGCUCC [Riare] | 112 | 117 | 115 | 120 | 115 |
| UAACUUGCAGUGAUGUUGCAAGAACUGGAUACCAGCAUGGAAACAUGCCCUUGGCAGCCAGAAGCUGGCUGAACAUCACGUCAGU [Design5] | 227 | 140 | 308 | 159 | 217 |
| UAAGAAUAAGUAGCAGUGAUGUUGCUACUACGAGGACCGGUACGGCCGCCACUCGAAUACGAGUGGAAGUAGCAACUACCACUCA [(H1)-(H2)-(Trp1)-(Trp2)-(T)'-(H)'-(T)''_Design7] | 114 | 96.2 | 125 | 88 | 135 |
| UAAUAAAUUCCAGCGAUGUCACUCUUCGAAGGAGCGGACGAAAGUCCAGGUAGGUCGCGAAGAGUGAUGUUCUUCGCGGCGCUGG [Omei KL Arginine A Exc A v3] | 167 | 115 | 183 | 204 | 174 |
| UAAUUUAUGUCUUUAAUUUUAUUAUCAGAUACCAGUGAUUUAUGACACCCUUGGCAGCUGUAUUGAGUGAUGUUCUUAUAUUAAA [JR_Nu_ExcTheophyA_Sub023] | 111 | 111 | 118 | 190 | 72.5 |

| Sequence | apparent KD of K4 kissing-loop reporter (input ligand: FMN 200 uM) [nM] | apparent KD of K4 kissing-loop reporter (input ligand: arginine 13.2 mM) [nM] | apparent KD of K4 kissing-loop reporter (input ligand: none) [nM] | apparent KD of K4 kissing-loop reporter [1] [nM] | apparent KD of K4 kissing-loop reporter [2] [nM] |
| --- | --- | --- | --- | --- | --- |
| UACACGACUCGUGUAAACCGAGGUAACAGGCAGGAUAUGUAACGGAACAGAAGGGCCAUGUUGCGUGUCCAGUGAUGUUGGAUGC [Vetedile] | 170 | 231 | 270 | 272 | 246 |
| UACAGGGAUAGUGAUGUUAUCCCAUGUGAUACCAGUGUCAUCCAACACCCUUGGCAGCAUACGGGCAGUGAUGUUGUUCUUGGUA [#17 K4 Theophylline A Exclusion] | 91.7 | 75.4 | 91.6 | 77.5 | 84.3 |
| UACCUGCUGUCAGGAUAUGAGUGCAGUGAUGUUGCACUCAACGUAACCAUCUUGAAAUGCAAACACUCAGAAGGGACGCGCGAAG [Onaninso] | 151 | 99.8 | 122 | 91.8 | 102 |
| UACUAACGUUAAGGAUAUGCGUCGAUUACCGGUAAGUGAUGUUUAGCGCCCGGGCAACGGUGGGUCGCAGAAGGUAAACACAGUU [theeternabot_sameState_KL_FMN_B_19] | 689 | 551 | 795 | 640 | 610 |
| UACUGGGCGAGUGAUGUUUGCUCAUGUGAUACCAGUGCCAUCCAACACCCUUGGCAGCAUGCGGGCAGUGAUGUUGUCCAUGGAA [Exclusion Theophylline A GF10] | 629 | 597 | 667 | 645 | 640 |
| UACUUUAAUUUAUAACUAUCUUUAUUUUGUCAGGAUAUCGUAUUGUCGAGAAGGGACUCUCUCAAGUGAUGUUUGAGAAAUCGUU [JR_SSFMNA_Sub024] | 84.8 | 125 | 115 | 133 | 87.9 |
| UAGAGUCACAAGACAGUGAUGUUGUCUACUGAGGAUAUCAUGAAUAUGAGAAGGCAGUGUUGGAGGUCUCUAACAACAGACUCUG [FMN A SS t3] | 237 | 227 | 389 | 370 | 280 |
| UAGGGCAUCGCAGGAUAUCCUGCUUAACGUUGGAUUCCAGUGAUGUUGGAAAGCCGGCCUAGGGUAGGAGAAGGGCGGACUUGAA [Riteteve] | 160 | 167 | 167 | 187 | 242 |
| UAGUCCUAGUGAUCCUUAUCAAGUGGUGGGCGAGGACCGGUACGGCCGCCACUCGACUAUGCAGUGAUGUUGCAAUCCGGACAAU [Exclusion - Tryptophan A (Freestyle 13)] | 191 | 211 | 194 | 243 | 179 |
| UAGUUGCCGGUUUGUAGGCUUCGGCAGUGGGAGGAUAUGUUGACCGACAGAAGGCCCAGUGAUGUUGGGCGAUUGGCGGUGAGAU [Antebear] | 50 | 78.3 | 145 |  | 123 |
| UAUACUAGACAAGAGAGAAUUCUCUCAAGAGAGGAUAUCCGAAUUCGGAGAAGGCUCGCUAAGUGAUGUUUGGAAUAGUCUAGAA [AK4 SS FMN A] | 418 | 352 | 339 | 319 | 384 |
| UAUACUAGACAAGAGAGAAUUCUCUCAAGAGAGGAUAUCCGAAUUCGGAGAAGGCUCUCUAAGUGAUGUUUGGAAUAGUCUAGAA [AK5 SS FMN A] | 660 | 448 | 737 | 500 | 500 |
| UAUAGCGUCAGAAGGAGCGUGAGUAUAACAUGGCUGGAGUGAUGUUCCAGGAGUUAAUACUCACAGGUAGGUCGCUGACUCCUGG [Arg B SS t2] | 173 | 125 | 92.8 | 150 | 174 |
| UAUGAAGGUGGAGGAUAUUGAUUGAAUCUUGGUCAGGAGUGAUGUUCCGGGAAGCCUUGGAUUCAUCGAGAAGGCCAAGGAUAGU [Extra 3] | 123 | 344 | 344 | 330 | 327 |
| UAUGUACACGGGUAGUUGUACAUCGAGGAAGGAGCGUGCGCAGGCACAGGUAGGUCGCCUCAGCGCACGAGUGAUGUUCGUGGGC [Xexegeus] | 276 | 170 | 257 | 216 | 247 |
| UAUGUCAUUCUCGACGGAGUGAUGUUCCGACGAGGACCGGUACGGCCGCCACUCGGCAGAAUUGAGUCUGUGAUCCUAGAUCAAU [theeternabot_exclusion_KL_Trp_A_44] | 120 | 99.3 | 116 | 103 | 200 |
| UAUUGCCACAGAGUGAUGUUCUGGCCGGAUACCAGCAUGCAAUUAUGCCCUUGGCAGCCGGAUGCGCGUCCAGCCACCGGGCCUG [theeternabot_exclusion_KL_Theo_A_29] | 1510 | 783 | 1310 | 1280 | 1140 |
| UAUUUAGUGACGGCCGCCACUAUGGUGAUUUAUUUGUUUGAGUGAUGUUUUGAUGUUUGAUUUUGUAGGACCGGGUUAUGUGUUG [yyycmullin] | 891 | 688 | 818 | 752 | 595 |
| UCAUGUGCCAGUGAUGUUGGCGUACGUGAUACCAGACGAAUAAAAGUCCCUUGGCAGCACAAAUAAGCCAAGAUAGAUGAAUGAU [Exclusion Theophylline A GF 1] | 130 | 125 | 132 | 137 | 116 |
| UCCAAGGACGAACCGGUAUGAUCACCGGAUACCAGAGGCGAAAGCCUCCCUUGGCAGCCGAGUGUAGUGAUGUUACACUGGUUCU | 89.8 | 82.8 | 90.7 | 94.5 | 91.5 |
| UCGCAAAAGUCGGCCGCCACUCCGGGCCCUAUAAAUGGGCGCAGUGAUGUUGCGGCUAGGCCUCUGAGGACCGGGACUUUGUAGC [Tixelequ] | 221 | 119 | 58.9 | 142 | 156 |
| UCGUCUGUGUGAGGAUAUCCAAGCGAGCUGCGUACAGGUGCGGCGUUUGGAGUGAUGUUCCAGGCAGGAGAAGGCGCACGGGCUU [Esored] | 191 | 247 | 284 | 285 | 251 |
